Assay [1] deals with T1, recombinant soluble human TREM2 protein (human TREM2 ECD-FlagHis) (human, UniProt Q9NZC2 19-174).
T1 sequence: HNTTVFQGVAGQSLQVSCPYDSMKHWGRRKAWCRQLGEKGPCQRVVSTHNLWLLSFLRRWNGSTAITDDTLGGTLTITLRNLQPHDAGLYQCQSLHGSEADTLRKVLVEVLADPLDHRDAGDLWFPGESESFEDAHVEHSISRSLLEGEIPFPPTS
As to the kind of experiment: Octet BLI binning; competitor: load Ab 26C10. The method, boiled down:
(§1)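 Sixteen hybridoma-derived anti-TREM2 antibodies were cross-tested pairwise as load and sandwich antibodies on anti-human Fc biosensors at 25° C. Assay buffer held 10 mM Tris pH 7.6, 150 mM NaCl, 1 mM CaCl₂, 0.1% Triton X-100 and 1 mg/mL BSA.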
A general note: BLI is a label-free optical method that tracks binding on a fibre tip over time.

Assay [2] concerns the target T2, human TREM2 on cells (human, UniProt Q9NZC2 19-230).
T2 sequence: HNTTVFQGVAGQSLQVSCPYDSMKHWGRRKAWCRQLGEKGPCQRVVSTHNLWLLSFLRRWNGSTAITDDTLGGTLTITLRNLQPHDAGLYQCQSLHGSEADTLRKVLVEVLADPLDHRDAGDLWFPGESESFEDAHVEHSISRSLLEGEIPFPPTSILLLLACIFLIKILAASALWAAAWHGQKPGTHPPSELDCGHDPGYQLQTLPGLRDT
As to the kind of experiment: cell-based or functional assay.

Assay [3] addresses T1, recombinant soluble human TREM2 protein …. The assay can be described thus: Octet BLI binning; competitor: load Ab 32E3. A digest of the protocol:
as §1

Assay [4] has the same target. As to the kind of experiment: Octet BLI binning; competitor: load Ab 5E3. The method, boiled down: as §1
For assay [5] the target is unchanged. The assay can be described thus: Octet BLI binning; competitor: load Ab 26F2. The method, boiled down:
as §1

For assay [6] the target is unchanged. As to the kind of experiment: Octet BLI binning; competitor: load Ab 24F4. The method, boiled down:
as §1

Assay [7] shares this target. The assay can be described thus: Octet BLI binning; competitor: load Ab 6E7. A digest of the protocol:
as §1

Assay [8] shares this target. The assay can be described thus: Octet BLI binning; competitor: load Ab 10E3. A digest of the protocol: as §1
Assay [9] shares this target. As to the kind of experiment: Octet BLI binning; competitor: load Ab 33B12. A digest of the protocol:
as §1

For assay [10] the target is unchanged. As to the kind of experiment: Octet BLI binning; competitor: load Ab 25F12. A digest of the protocol: as §1
The target in assay [11] is T2, human TREM2 on cells. The assay can be described thus: cell-based or functional assay. The source holds these as a separate data set.
In assay [12] the target is T1, recombinant soluble human TREM2 protein …. As to the kind of experiment: Octet BLI binning; competitor: load Ab 13E7. A digest of the protocol: as §1
Assay [13] shares this target. As to the kind of experiment: Octet BLI binning; competitor: load Ab 24A10. A digest of the protocol:
as §1

The target in assay [14] is T3, recombinant soluble cynomolgus TREM2 protein (cynomolgus TREM2 extracellular domain coupled to a Flag/His tag) (cynomolgus, UniProt A0A2K5UY34 49-204).
T3 construct: extracellular domain; also called Cyno TREM2
T3 sequence: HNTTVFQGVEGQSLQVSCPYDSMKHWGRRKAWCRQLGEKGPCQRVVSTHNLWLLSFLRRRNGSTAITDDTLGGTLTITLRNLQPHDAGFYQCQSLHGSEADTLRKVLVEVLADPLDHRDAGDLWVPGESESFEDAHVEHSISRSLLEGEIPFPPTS
As to the kind of experiment: Octet BLI, antibody on anti-human Fc sensor, 25 C. As to the method: (§2) To quantitate the binding affinity of agonist antibodies for human TREM2, association and dissociation rate constants as well as the equilibrium dissociation constant were determined using anti-human Fc (Kinetic) sensors on an Octet® HTX instrument (Pall ForteBio). Agonist anti-TREM2 antibodies were made up in DMEM null media, 250 μL at 10 μg/mL. The, 250 uL of assay buffer (10 mM Tris (pH 7.6), 0.1% Triton X-100, 150 mM NaCl, 1mM CaCl₂, and 1 mg/mL BSA) was added to the antibody solutions to a final volume of 500 μL and final antibody concentration of 5 μg/mL. The anti-human Fc sensor was pre-incubated in 200 μL of the assay buffer for a minimum of 10 minutes. The sensor was then regenerated for 5 seconds in 10 mM glycine pH 1.5. Test agonist anti-TREM2 antibodies were loaded onto the sensor for 2 minutes, and baseline measurements were taken for 2 minutes. […] The recombinant TREM2 proteins were allowed to associate with the antibody-loaded sensor for 10 minutes, and then dissociation was measured for 10 minutes. The assay was conducted at 25° C. Experimental kinetic results were globally fit to a 1:1 binding model in order to determine the association and dissociation rate constants as well as the equilibrium dissociation constant.

In assay [15] the target is T1, recombinant soluble human TREM2 protein …. As to the kind of experiment: Octet BLI, antibody on anti-human Fc sensor, 25 C. As to the method: as §2
For assay [16] the target is unchanged. As to the kind of experiment: Octet BLI binning; competitor: load Ab 26A10. The method, boiled down:
as §1

The source of these data is patent US20220204611A1 (Amgen, published 2022).

B1: 6E7 (antibody, human IgG2, V domains shown)
VH: EVQLVQSGAEVKKPGESLKISCKGSGYSFTSYWIAWVRQMPGKGLEWMGIIYPGDSDTRYSPSFQGQVTISADKSISTAYLQWSSLKASDTAMYFCARQRTFYYDSSDYFDYWGQGTLVTVSS
VL: DIQMTQSPSSVSASVGDRVTITCRASQGISSWLAWYQQKPGKAPKLLIYAASSLQNGVPSRFSGSGSGTDFTLTISSLQPEDFATYFCQQADSFPRTFGQGTKLEIK
notes: human IgG2 from hybridoma
What is called Kd is a measure of binding affinity in units of concentration. With B1, the sandwich binding signal in [1] amounted to 0.472; in [3], 0.079; in assay [4], 0.565; in assay [5], 0.506; in assay [6], 0.054; in assay [7] it was 0.009. The sandwich binding signal worked out at 0.051 in assay [8]; 0.434 in assay [9]; 0.371 in assay [10]; 0.051 in assay [12]; 0.499 in assay [13]; 0.475 in assay [16]. Besides, the “pSyk EC50” value in assay [2] worked out at 0.29 nM. In addition, in assay [11], the “Emax (% maximum activation compared to RnD antibody)” value amounted to 273%. Besides, in [11], the “pSyk EC50, differentiated THP-1 cells” value worked out at 0.899 nM. The Kd in [14] was 2.5 nM; in [15] it was 2.6 nM.

B2: 10E3 (antibody, human IgG2, V domains shown)
VH: EVQLVQSGAEVKKPGESLMISCKGSGYSFTNYWIGWVRQMPGKGLEWMGIIYPGDSDTRYSPSFQGQVTISADKSISTAYLQWSSLKASDTAMYFCARRRQGIWGDALDIWGQGTLVTVSS
VL: EIVMTQSPATLSVSPGERATLSCRASQSVSSNLAWFQQKPGQAPRLLIYGASTRATGIPARFSVSGSGTEFTLTISSLQSEDFAFYYCLQDNNWPPTFGPGTKVDIK
notes: human IgG2 from hybridoma
In the case of B2, the sandwich binding signal in assay [1] is 0.348; in assay [3] it was 0.007; in [4] it was 0.415; in assay [5], 0.354; in [6], -0.002; in assay [7], -0.012. In addition, the sandwich binding signal in assay [8] was -0.024; in [9], 0.303; in assay [10], 0.273; in assay [12], -0.019; in [13], 0.38; in assay [16], 0.367. In addition, the “pSyk EC50” value in assay [2] was found to be 0.4 nM. Moreover, the “Emax (% maximum activation compared to RnD antibody)” value in assay [11] was 456%. Moreover, in assay [11], the “pSyk EC50, differentiated THP-1 cells” value was 1 nM. For the same molecule, the dissociation constant Kd in [14] is 11.3 nM; in assay [15] it was 10.3 nM.

B3: 13E7 (antibody, human IgG2, V domains shown)
VH: EVQLVQSGAEVKKPGESLMISCKGSGYSFTSYWIGWVRQMPGKGLEWMGIIYPGDSDTRYSPSFQGQVTISADKSISTAYLQWSSLKASDTAMYFCARRRQGIWGDALDFWGQGTLVTVSS
VL: EIVMTQSPATLSVSPGERATLSCRASQSVSSNLAWFQQKPGQAPRLLIYGASTRATGIPARFSVSGSGTEFTLTISSLQSEDFAVYYCLQDNNWPPTFGPGTKVDIK
notes: human IgG2 from hybridoma
Consider B3, for which the sandwich binding signal is 0.369 in assay [1]; 0.01 in [3]; 0.428 in assay [4]; 0.363 in assay [5]; -0.002 in assay [6]; -0.01 in assay [7]. Further, the sandwich binding signal was -0.019 in assay [8]; 0.303 in [9]; 0.278 in [10]; -0.017 in [12]; 0.383 in assay [13]; 0.371 in assay [16]. Besides, the “pSyk EC50” value in assay [2] turned out to be 0.4 nM. Besides, the “Emax (% maximum activation compared to RnD antibody)” value in [11] was found to be 460%. Besides, in assay [11], the “pSyk EC50, differentiated THP-1 cells” value worked out at 0.462 nM. The values for the dissociation constant Kd in [14] and in [15] were 8.71 nM and 11 nM, respectively.

B4: 5E3 (antibody, human IgG2, V domains shown)
VH: QVQLVQSGAEVKKPGASVKVSCKASGYTFTGYYIHWVRQAPGLGLEWMGWINPYSGGTTSAQKFQGRVTMTRDTSISSAYMELSRLRSDDTAVYYCARDGGYLALYGTDVWGQGTTVTVSS
VL: DIQMTQSPSSLSASVGDRVTITCRASQGISNYLAWFQQKPGKAPKSLIYAASSLQSGVPSKFSGSGSGTDFTLTISSLQPEDFATYYCQQYSTYPFTFGPGTKVDIK
notes: human IgG2 from hybridoma
With B4, the sandwich binding signal in [1] was -0.073; in [3] it was 0.338; in [4] it was -0.165; in assay [5], -0.045; in [6], 0.434; in [7] it was 0.514. Further, the sandwich binding signal in [8] is 0.222; in [9] it was -0.055; in assay [10], 0.38; in assay [12], 0.259; in [13] it was 0.441; in [16], -0.052. For the same molecule, the “pSyk EC50” value in assay [2] was 0.24 nM. Moreover, the “Emax (% maximum activation compared to RnD antibody)” value in assay [11] is 195%. The “pSyk EC50, differentiated THP-1 cells” value in [11] is 0.594 nM. In addition, the dissociation constant (Kd) came out at 1.6 nM in assay [14] and 2.1 nM in assay [15].
